What follows are binders tested against T1, Human CD8a (human, UniProt P01732 22-235) (assay: flow cytometry, HEK293F cells transfected with human CD8a (citrine+ gate)).
T1 construct: also called CD8α; human CD8a-FL
Experimental: Binding of polypeptides comprising a humanized CD8a-binding VHH domain, an Fc region, and, in certain polypeptides, a mutated, attenuated IL-2 fused to the C-terminus of the Fc region, was assessed by flow cytometry on HEK293F cells transiently transfected with a plasmid encoding human CD8α or CD8b chains. […] Complexes or polypeptides that are not labeled “KiH” form homodimers under physiologic conditions. The transfected cells were plated in a 96-well plate at 50,000 cells per well in FACS buffer (PBS, 1% BSA, 0.1% NaN₃, pH 7.4). Test polypeptides were then diluted to 2× the final concentration of 500 nM, and a 6-fold serial dilution was made. FACS buffer with no polypeptide was used as a secondary antibody-only control. Test polypeptides were added to an equal volume of cells, and assay plates were incubated for 30 minutes at 4° C. After washing twice with 150 μL of FACS buffer per well, the cells were resuspended in FACS buffer with a fluorescently-labeled anti-human Fc antibody diluted 1:1000 to detect CD8 binding. Assay plates were incubated at 4° C. for 30 minutes. After one additional wash with 150 μL of FACS buffer, polypeptide bound to CD8 was detected by flow cytometry on cells positive for the transfection marker citrine. Binding was measured on these cell populations as mean fluorescence intensity (MFI) at 647 nm. Flow cytometric detection was performed on an IntelliCyt iQue Screener Plus. The data were plotted and analyzed using GraphPad Prism analysis software.

T1 sequence (P01732 22-235): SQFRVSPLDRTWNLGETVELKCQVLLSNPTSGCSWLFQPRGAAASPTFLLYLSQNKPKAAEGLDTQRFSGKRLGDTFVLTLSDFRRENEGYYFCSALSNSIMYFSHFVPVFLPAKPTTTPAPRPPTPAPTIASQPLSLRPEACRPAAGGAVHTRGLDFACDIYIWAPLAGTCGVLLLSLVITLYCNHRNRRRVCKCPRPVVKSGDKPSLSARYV

| Kd [nM] | Bmax (MFI) | Binder |
| --- | --- | --- |
| 5.23 | – | hzB7v21-xELL-P329G-KiH Fc-IL-2 mutant (Fc fusion, Knob-in-hole heterodimer: VHH on the N-terminus of each Fc, mutant IL-2 only on the knob Fc; not shown: mutant, attenuated IL-2 fused to the C-terminus of the knob Fc) chain 1: QVQLVQSGGGEVQPGGSLRLSCAASGFTFDDYAMSWVRQAPGKGLEWVSTITWDAEGTDYAESVKGRFTISRDNAKNTVYLQMSSLRAEDTAVYYCAKGSPELQYDTWGQGTLVTVKPDKTHTCPPCPAPGGPSVFLFPPKPKDTLMISRTPEVTCVVVDVSHEDPEVKFNWYVDGVEVHNAKTKPREEQYNSTYRVVSVLTVLHQDWLNGKEYKCKVSNKALGAPIEKTISKAKGQPREPQVCTLPPSRDELTKNQVSLSCAVKGFYPSDIAVEWESNGQPENNYKTTPPVLDSDGSFFLVSKLTVDKSRWQQGNVFSCSVMHEALHNRYTQKSLSLSPG chain 2: QVQLVQSGGGEVQPGGSLRLSCAASGFTFDDYAMSWVRQAPGKGLEWVSTITWDAEGTDYAESVKGRFTISRDNAKNTVYLQMSSLRAEDTAVYYCAKGSPELQYDTWGQGTLVTVKPDKTHTCPPCPAPGGPSVFLFPPKPKDTLMISRTPEVTCVVVDVSHEDPEVKFNWYVDGVEVHNAKTKPREEQYNSTYRVVSVLTVLHQDWLNGKEYKCKVSNKALGAPIEKTISKAKGQPREPQVYTLPPCRDELTKNQVSLWCLVKGFYPSDIAVEWESNGQPENNYKTTPPVLDSDGSFFLYSKLTVDKSRWQQGNVFSCSVMHEALHNHYTQKSLSLSPG |
| 6.54 | 1.28e+07 | hzB7v24-xELL-P329G-KiH Fc-IL-2 mutant (Fc fusion, Knob-in-hole heterodimer: VHH on the N-terminus of each Fc, mutant IL-2 only on the knob Fc; not shown: mutant, attenuated IL-2 fused to the C-terminus of the knob Fc) chain 1: QVQLVQSGGGEVQPGGSLRLSCAASGFTFSSYAMSWVRQAPGKGLEWVSTITWDAEGTDYAESVKGRFTISRDNAKNTVYLQMSSLRAEDTAVYYCAKGSPELQYDTWGQGTLVTVKPDKTHTCPPCPAPGGPSVFLFPPKPKDTLMISRTPEVTCVVVDVSHEDPEVKFNWYVDGVEVHNAKTKPREEQYNSTYRVVSVLTVLHQDWLNGKEYKCKVSNKALGAPIEKTISKAKGQPREPQVCTLPPSRDELTKNQVSLSCAVKGFYPSDIAVEWESNGQPENNYKTTPPVLDSDGSFFLVSKLTVDKSRWQQGNVFSCSVMHEALHNRYTQKSLSLSPG chain 2: QVQLVQSGGGEVQPGGSLRLSCAASGFTFSSYAMSWVRQAPGKGLEWVSTITWDAEGTDYAESVKGRFTISRDNAKNTVYLQMSSLRAEDTAVYYCAKGSPELQYDTWGQGTLVTVKPDKTHTCPPCPAPGGPSVFLFPPKPKDTLMISRTPEVTCVVVDVSHEDPEVKFNWYVDGVEVHNAKTKPREEQYNSTYRVVSVLTVLHQDWLNGKEYKCKVSNKALGAPIEKTISKAKGQPREPQVYTLPPCRDELTKNQVSLWCLVKGFYPSDIAVEWESNGQPENNYKTTPPVLDSDGSFFLYSKLTVDKSRWQQGNVFSCSVMHEALHNHYTQKSLSLSPG |
| 3.9 | 1.43e+07 | hzB7v23-xELL-P329G-KiH Fc-IL-2 mutant (Fc fusion, Knob-in-hole heterodimer: VHH on the N-terminus of each Fc, mutant IL-2 only on the knob Fc; not shown: mutant, attenuated IL-2 fused to the C-terminus of the knob Fc) chain 1: QVQLVQSGGGEVQPGGSLRLSCAASGFTFDSYAMSWVRQAPGKGLEWVSTITWDAEGTDYAESVKGRFTISRDNAKNTVYLQMSSLRAEDTAVYYCAKGSPELQYDTWGQGTLVTVKPDKTHTCPPCPAPGGPSVFLFPPKPKDTLMISRTPEVTCVVVDVSHEDPEVKFNWYVDGVEVHNAKTKPREEQYNSTYRVVSVLTVLHQDWLNGKEYKCKVSNKALGAPIEKTISKAKGQPREPQVCTLPPSRDELTKNQVSLSCAVKGFYPSDIAVEWESNGQPENNYKTTPPVLDSDGSFFLVSKLTVDKSRWQQGNVFSCSVMHEALHNRYTQKSLSLSPG chain 2: QVQLVQSGGGEVQPGGSLRLSCAASGFTFDSYAMSWVRQAPGKGLEWVSTITWDAEGTDYAESVKGRFTISRDNAKNTVYLQMSSLRAEDTAVYYCAKGSPELQYDTWGQGTLVTVKPDKTHTCPPCPAPGGPSVFLFPPKPKDTLMISRTPEVTCVVVDVSHEDPEVKFNWYVDGVEVHNAKTKPREEQYNSTYRVVSVLTVLHQDWLNGKEYKCKVSNKALGAPIEKTISKAKGQPREPQVYTLPPCRDELTKNQVSLWCLVKGFYPSDIAVEWESNGQPENNYKTTPPVLDSDGSFFLYSKLTVDKSRWQQGNVFSCSVMHEALHNHYTQKSLSLSPG |
| 7.5 | – | hzB7v19-xELL-P329G-KiH Fc-IL-2 mutant (Fc fusion, Knob-in-hole heterodimer: VHH on the N-terminus of each Fc, mutant IL-2 only on the knob Fc; not shown: mutant, attenuated IL-2 fused to the C-terminus of the knob Fc) chain 1: QVQLVESGGGEVQPGGSLRLSCAASGFTFDDYAMSWVRQAPGKGLEWVSTITWDAEGTDYAESVKGRFTISRDNAKNTVYLQMSSLRAEDTAVYYCAKGSPELQYDTWGQGTLVTVKPDKTHTCPPCPAPGGPSVFLFPPKPKDTLMISRTPEVTCVVVDVSHEDPEVKFNWYVDGVEVHNAKTKPREEQYNSTYRVVSVLTVLHQDWLNGKEYKCKVSNKALGAPIEKTISKAKGQPREPQVCTLPPSRDELTKNQVSLSCAVKGFYPSDIAVEWESNGQPENNYKTTPPVLDSDGSFFLVSKLTVDKSRWQQGNVFSCSVMHEALHNRYTQKSLSLSPG chain 2: QVQLVESGGGEVQPGGSLRLSCAASGFTFDDYAMSWVRQAPGKGLEWVSTITWDAEGTDYAESVKGRFTISRDNAKNTVYLQMSSLRAEDTAVYYCAKGSPELQYDTWGQGTLVTVKPDKTHTCPPCPAPGGPSVFLFPPKPKDTLMISRTPEVTCVVVDVSHEDPEVKFNWYVDGVEVHNAKTKPREEQYNSTYRVVSVLTVLHQDWLNGKEYKCKVSNKALGAPIEKTISKAKGQPREPQVYTLPPCRDELTKNQVSLWCLVKGFYPSDIAVEWESNGQPENNYKTTPPVLDSDGSFFLYSKLTVDKSRWQQGNVFSCSVMHEALHNHYTQKSLSLSPG |
| 4.48 | – | hzB7v20-xELL-P329G-KiH Fc-IL-2 mutant (Fc fusion, Knob-in-hole heterodimer: VHH on the N-terminus of each Fc, mutant IL-2 only on the knob Fc; not shown: mutant, attenuated IL-2 fused to the C-terminus of the knob Fc) chain 1: EVQLVQSGGGEVQPGGSLRLSCAASGFTFDDYAMSWVRQAPGKGLEWVSTITWDAEGTDYAESVKGRFTISRDNAKNTVYLQMSSLRAEDTAVYYCAKGSPELQYDTWGQGTLVTVKPDKTHTCPPCPAPGGPSVFLFPPKPKDTLMISRTPEVTCVVVDVSHEDPEVKFNWYVDGVEVHNAKTKPREEQYNSTYRVVSVLTVLHQDWLNGKEYKCKVSNKALGAPIEKTISKAKGQPREPQVCTLPPSRDELTKNQVSLSCAVKGFYPSDIAVEWESNGQPENNYKTTPPVLDSDGSFFLVSKLTVDKSRWQQGNVFSCSVMHEALHNRYTQKSLSLSPG chain 2: EVQLVQSGGGEVQPGGSLRLSCAASGFTFDDYAMSWVRQAPGKGLEWVSTITWDAEGTDYAESVKGRFTISRDNAKNTVYLQMSSLRAEDTAVYYCAKGSPELQYDTWGQGTLVTVKPDKTHTCPPCPAPGGPSVFLFPPKPKDTLMISRTPEVTCVVVDVSHEDPEVKFNWYVDGVEVHNAKTKPREEQYNSTYRVVSVLTVLHQDWLNGKEYKCKVSNKALGAPIEKTISKAKGQPREPQVYTLPPCRDELTKNQVSLWCLVKGFYPSDIAVEWESNGQPENNYKTTPPVLDSDGSFFLYSKLTVDKSRWQQGNVFSCSVMHEALHNHYTQKSLSLSPG |
| 3.28 | 1.45e+07 | hzB7v25-xELL-P329G-KiH Fc-IL-2 mutant (Fc fusion, Knob-in-hole heterodimer: VHH on the N-terminus of each Fc, mutant IL-2 only on the knob Fc; not shown: mutant, attenuated IL-2 fused to the C-terminus of the knob Fc) chain 1: QVQLVQSGGGEVQPGGSLRLSCAASGFTFDDYAMSWVRQAPGKGLEWVSTITWSAEGTDYAESVKGRFTISRDNAKNTVYLQMSSLRAEDTAVYYCAKGSPELQYDTWGQGTLVTVKPDKTHTCPPCPAPGGPSVFLFPPKPKDTLMISRTPEVTCVVVDVSHEDPEVKFNWYVDGVEVHNAKTKPREEQYNSTYRVVSVLTVLHQDWLNGKEYKCKVSNKALGAPIEKTISKAKGQPREPQVCTLPPSRDELTKNQVSLSCAVKGFYPSDIAVEWESNGQPENNYKTTPPVLDSDGSFFLVSKLTVDKSRWQQGNVFSCSVMHEALHNRYTQKSLSLSPG chain 2: QVQLVQSGGGEVQPGGSLRLSCAASGFTFDDYAMSWVRQAPGKGLEWVSTITWSAEGTDYAESVKGRFTISRDNAKNTVYLQMSSLRAEDTAVYYCAKGSPELQYDTWGQGTLVTVKPDKTHTCPPCPAPGGPSVFLFPPKPKDTLMISRTPEVTCVVVDVSHEDPEVKFNWYVDGVEVHNAKTKPREEQYNSTYRVVSVLTVLHQDWLNGKEYKCKVSNKALGAPIEKTISKAKGQPREPQVYTLPPCRDELTKNQVSLWCLVKGFYPSDIAVEWESNGQPENNYKTTPPVLDSDGSFFLYSKLTVDKSRWQQGNVFSCSVMHEALHNHYTQKSLSLSPG |

From patent US20250320295A1 (INHIBRX BIOSCIENCES, published 2025)
